Measurements taken from patent US20250074996A1 (Innovent, published 2025).

Tests used:
Cyno BCMA-Fc = target: T1, Cyno BCMA-Fc (monkey (cyno), UniProt A0A2K5UD97 1-53); assay: BLI (Octet Red96e), SA or AHC sensors, 1:1 fit
T1 construct: also called monkey BCMA antigen (ACRO Biosystems); not shown: Fc tag of the bought antigen
Description: (§1) Sensors (Fortebio, Cat #18-5019) coupled to streptavidin protein (SA) or anti-human-Fc (AHC) were pre-wetted by immersion in 200 μL of SD buffer (1×PBS, 0.1% BSA, 0.05% tween-20). Exemplary antibodies and biotin-labeled or Fc-tagged BCMA and CD3D&E heterodimer antigens were diluted with SD buffer, respectively. 200 μL of SD buffer and diluted samples (100 nM) were taken and added to a 96-well black plate (Greiner, Cat #655209), respectively. The sensors and the samples were placed in Octet (Fortebio, Red96e). Data Acquisition 10.0 was executed and “New Kinetic Experiment” was selected. The sensors were arranged according to the positions of the samples, and the operation procedures and times were set as: Baseline 60 s, Loading 250 s, Baseline 100 s, Association 600 s and Dissociation 600 s. The experiment was conducted at a rotation speed of 1000 rpm and 30° C.
(§2) The results were analyzed in “Data Analysis 10.0” software, with the buffer reference channel being subtracted. 1:1 binding was selected to fit the data, and kₒₙ, koff, and KD values for the exemplary antibodies were calculated.
(§3) In the experiments performed according to the above-mentioned assay, the exemplary antibodies were detected using a human BCMA antigen (ACRO Biosystems) and a monkey BCMA antigen (ACRO Biosystems). The detection results of the affinities to human BCMA are shown in Table 6; and the detection results of the affinities to monkey BCMA are shown in Table 7.

Human BCMA-Bio = target: T2, Human BCMA-Bio (human, UniProt Q02223 1-54, biotin-labeled); assay: BLI (Octet Red96e), SA or AHC sensors, 1:1 fit
T2 construct: Bought antigen; also called human BCMA antigen (ACRO Biosystems)
T2 sequence (looked up): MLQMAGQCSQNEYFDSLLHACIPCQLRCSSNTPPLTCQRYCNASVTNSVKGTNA
Description: as §1, §2, §3

[1] = target: T3, CD3E on the surface of Jurkat-NFAT-Luc cells (UniProt P07766 23-207); assay: cell-based or functional assay
[2] = target: T3, CD3E on the surface of Jurkat-NFAT-Luc …; assay: cell-based or functional assay; remark: listed apart in the source
Cyno CD3D&E-Bio = target: T4, Cyno CD3D&E-Bio (monkey (cyno), UniProt Q95LI5 22-117; Q95LI8 22-105, biotin-labeled (site not stated)); assay: BLI (Octet Red96e), SA or AHC sensors, 1:1 fit
T4 construct: Bought heterodimer antigen; also called monkey CD3D&E heterodimer antigen (ACRO Biosystems); monkey CD3E
Description: as §1, §2
(§4) In experiments performed according to the above-mentioned assay, the affinities of the exemplary antibodies were detected using a human CD3D&E heterodimer antigen (ACRO Biosystems) and a monkey CD3D&E heterodimer antigen (ACRO Biosystems). The binding affinities of GPRC5D×CD3 bispecific antibodies hz5E12.1-P1/SP34.24 and hz5E12.1-P1/SP34.87 to human/monkey CD3D&E were also detected.

Human CD3D&E-Bio = target: T5, Human CD3D&E-Bio (human, UniProt P07766 23-126; P04234 22-105, biotin-labeled (site not stated)); assay: BLI (Octet Red96e), SA or AHC sensors, 1:1 fit
T5 construct: Bought heterodimer antigen; also called human CD3D&E heterodimer antigen (ACRO Biosystems); human CD3E
Description: as §1, §2, §4

human GPRC5D = target: T6, human GPRC5D (human, UniProt Q9NZD1 1-345); assay: flow cytometry on huGPRC5D GS-CHO cells
T6 construct: whole, on cells; also called huGPRC5D; G protein-coupled receptor family C group 5 member D
Description: The affinity of the anti-GPRC5D antibody was detected by flow cytometry. Antibodies at various concentrations were co-incubated with cells expressing human GPRC5D, including GS-CHO cells overexpressing human GPRC5D (huGPRC5D GS-CHO), multiple myeloma cells MM1.R, H929 and AMO-1, for 30 min. A fluorescently-labeled secondary antibody (APC-mouse anti-human IgG Fc antibody, Biolegend, Cat #409306) was then added, the cell fluorescence intensity was detected using a Live/Dead yellow dead cell stain (Thermo Fisher, Cat #L34967) by flow cytometry, a curve was fitted using GraphPad Prism 8.0, and the EC50 value was calculated to show the binding affinity of the antibody to human GPRC5D.
In the exemplary trispecific antibodies, the binding affinities of the antigen-binding sites from the humanized antibodies hz5E12.1.P1 and hz11B7.5 to GPRC5D were detected.

T3 sequence (P07766 23-207): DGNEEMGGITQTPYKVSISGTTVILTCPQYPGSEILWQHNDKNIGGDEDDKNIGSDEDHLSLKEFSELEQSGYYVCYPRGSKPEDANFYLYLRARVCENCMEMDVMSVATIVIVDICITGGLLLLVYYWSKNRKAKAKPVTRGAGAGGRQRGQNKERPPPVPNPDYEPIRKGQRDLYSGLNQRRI
T1 sequence (A0A2K5UD97 entry or part of it): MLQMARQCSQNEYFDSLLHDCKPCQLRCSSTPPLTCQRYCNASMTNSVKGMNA
T4 sequence (Q95LI5 22-117 limits assumed, chain 1 of 2): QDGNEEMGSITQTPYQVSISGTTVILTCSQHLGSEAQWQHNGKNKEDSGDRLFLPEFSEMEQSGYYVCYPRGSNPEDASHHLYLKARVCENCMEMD
T4 sequence (Q95LI8 22-105 limits assumed, chain 2 of 2): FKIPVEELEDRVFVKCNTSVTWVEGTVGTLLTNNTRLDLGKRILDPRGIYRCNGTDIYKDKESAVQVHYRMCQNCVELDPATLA
T5 sequence (P07766 23-126 limits assumed, chain 1 of 2): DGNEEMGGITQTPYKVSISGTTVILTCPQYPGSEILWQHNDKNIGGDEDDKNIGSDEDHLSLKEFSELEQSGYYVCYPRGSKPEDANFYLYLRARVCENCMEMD
T5 sequence (P04234 22-105 limits assumed, chain 2 of 2): as the sequence (Q95LI8 22-105 limits assumed, chain 2 of 2) above, with V5I, K15N, V20I, T32S, N33D, N34I, A64T, N74S, L83V counted along it
T6 sequence (Q9NZD1 whole entry): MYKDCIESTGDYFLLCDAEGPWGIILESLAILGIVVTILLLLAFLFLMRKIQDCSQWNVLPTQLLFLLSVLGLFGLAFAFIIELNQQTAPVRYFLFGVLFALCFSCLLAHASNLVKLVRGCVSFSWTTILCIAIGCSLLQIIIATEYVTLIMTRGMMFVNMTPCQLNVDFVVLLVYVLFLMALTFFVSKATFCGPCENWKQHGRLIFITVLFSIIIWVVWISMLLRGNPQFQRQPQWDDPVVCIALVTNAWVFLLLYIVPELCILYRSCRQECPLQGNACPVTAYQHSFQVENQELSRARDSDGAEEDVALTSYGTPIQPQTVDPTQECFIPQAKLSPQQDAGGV

B1: TS-F2-5 (hz5E12.1.P1/SP34.87/38456) (antibody, human IgG1, kappa, lambda, L234A L235A)
heavy 1: not shown
light 1: DIVMTQSPDSLAVSLGERATINCRASESVDSYGITFMNWYQQKPGQPPKLLIYAASNQGSGVPDRFSGSGSGTDFTLTISSLQAEDVAVYYCQQSKEVPWTFGQGTKLEIKRTVAAPSVFIFPPSDEQLKSGTASVVCLLNNFYPREAKVQWKVDNALQSGNSQESVTEQDSKDSTYSLSSTLTLSKADYEKHKVYACEVTHQGLSSPVTKSFNRGEC
heavy 2: not shown
light 2: QAVVTQEPSLTVSPGGTVTLTCRSSTGAVTTSNYANWVQQKPGQAPRGLIGGTNKRAPGVPARFSGSLLGDKAALTLLGAQPEDEAEYYCALWYSNLWVFGQGTKLTVLGQPKAAPSVTLFPPSSEELQANKATLVCLISDFYPGAVTVAWKADSSPVKAGVETTTPSKQSNNKYAASSYLSLTPEQWKSHRSYSCQVTHEGSTVEKTVAPTECS
Kd (Cyno BCMA-Fc): 0.21 nM | koff (Cyno BCMA-Fc): 0.0002 s⁻¹ | kon (Cyno BCMA-Fc): 950000 M⁻¹ s⁻¹ | Kd (Human BCMA-Bio): 2.1 nM | koff (Human BCMA-Bio): 0.000279 s⁻¹ | kon (Human BCMA-Bio): 133000 M⁻¹ s⁻¹ | EC50 of Jurkat-NFAT-Luc luciferase activation; tumor cells 8226 [1]: 0.0211 nM | EC50 of Jurkat-NFAT-Luc luciferase activation; tumor cells H929 [1]: 0.0178 nM | EC50 of Jurkat-NFAT-Luc luciferase activation; tumor cells L363 [1]: 0.0213 nM | EC50 of Jurkat-NFAT-Luc luciferase activation; tumor cells U266 [1]: 0.858 nM | EC50 of Jurkat-NFAT-Luc luciferase activation; tumor cells ARD [2]: 0.00696 nM | EC50 of Jurkat-NFAT-Luc luciferase activation; tumor cells MM.1S [2]: 0.00734 nM | Kd (Cyno CD3D&E-Bio): 220 nM | koff (Cyno CD3D&E-Bio): 0.0173 s⁻¹ | kon (Cyno CD3D&E-Bio): 78600 M⁻¹ s⁻¹ | Kd (Human CD3D&E-Bio): 243 nM | koff (Human CD3D&E-Bio): 0.0188 s⁻¹ | kon (Human CD3D&E-Bio): 77500 M⁻¹ s⁻¹ | EC50 (human GPRC5D): 45 nM
